This series concerns Nc1nc2c(ncn2[C@@H]2O[C@H](COP(=O)(O)OP(=O)(O)OP(=O)(O)O)[C@@H](O)[C@H]2O)c(=O)[nH]1. The series can be described thus: purified protein. The note with it: 59 nM GST-FlhFBb; GTP 0-100 μM; room temperature.

For “rFlhFBb (BB0270, GST-FlhFBb) (Borreliella burgdorferi B31)”, the Km (usually the substrate concentration at which the rate is half of its maximum) is 10.71 ± 2.08 µM; the Vmax – broadly, the top rate of the reaction or transport when substrate is in excess – is 113 µmol/min; the kcat (usually the number of substrate molecules converted per active site and unit of time at saturation) came to 0.0318 ± 0.00133 s⁻¹; the kcat/Km (usually the second-order rate constant that governs catalysis at low substrate concentration) came to 2970 M⁻¹ s⁻¹.

These data come from article PMC8085991.
